{"source": "paper PMC3634029", "about": "(PLoS ONE, 2013)", "binders": {"B1": {"name": "human monoclonal anti-FVIII antibody Bo2C11 (antibody, V domains shown)", "VH": "QVQLVQSGAEVKKPGASVKVSCKVSGYTLTELPVHWVGQAPGKGLEWVGSFDPESGESIYAREFQGSVTMTADTSTDIAYMELSSLRSDDTAVYYCAVPDPDAFDIWGQGTMVTVSS", "VL": "EIALTQSPGTLSLSPGERATLSCRASQSFSSSYLAWYQQKPGQAPRLLIYGASTRATGIPDRFSGSGSGTDFTLTISRLEPEDFAVYYCQKYGTSAITFGQGTRLEIK"}}, "molecular_target": "T1, Full-length recombinant FVIII (Kogenate FS) (Homo sapiens, UniProt P00451)", "T1 construct": "coagulation factor VIII, human, full-length recombinant (Kogenate FS); also called coagulation factor VIII; source: provided by Bayer Healthcare (Kogenate FS), reconstituted and dialyzed into Borate Buffer", "T1 sequence (P00451 20-2351)": "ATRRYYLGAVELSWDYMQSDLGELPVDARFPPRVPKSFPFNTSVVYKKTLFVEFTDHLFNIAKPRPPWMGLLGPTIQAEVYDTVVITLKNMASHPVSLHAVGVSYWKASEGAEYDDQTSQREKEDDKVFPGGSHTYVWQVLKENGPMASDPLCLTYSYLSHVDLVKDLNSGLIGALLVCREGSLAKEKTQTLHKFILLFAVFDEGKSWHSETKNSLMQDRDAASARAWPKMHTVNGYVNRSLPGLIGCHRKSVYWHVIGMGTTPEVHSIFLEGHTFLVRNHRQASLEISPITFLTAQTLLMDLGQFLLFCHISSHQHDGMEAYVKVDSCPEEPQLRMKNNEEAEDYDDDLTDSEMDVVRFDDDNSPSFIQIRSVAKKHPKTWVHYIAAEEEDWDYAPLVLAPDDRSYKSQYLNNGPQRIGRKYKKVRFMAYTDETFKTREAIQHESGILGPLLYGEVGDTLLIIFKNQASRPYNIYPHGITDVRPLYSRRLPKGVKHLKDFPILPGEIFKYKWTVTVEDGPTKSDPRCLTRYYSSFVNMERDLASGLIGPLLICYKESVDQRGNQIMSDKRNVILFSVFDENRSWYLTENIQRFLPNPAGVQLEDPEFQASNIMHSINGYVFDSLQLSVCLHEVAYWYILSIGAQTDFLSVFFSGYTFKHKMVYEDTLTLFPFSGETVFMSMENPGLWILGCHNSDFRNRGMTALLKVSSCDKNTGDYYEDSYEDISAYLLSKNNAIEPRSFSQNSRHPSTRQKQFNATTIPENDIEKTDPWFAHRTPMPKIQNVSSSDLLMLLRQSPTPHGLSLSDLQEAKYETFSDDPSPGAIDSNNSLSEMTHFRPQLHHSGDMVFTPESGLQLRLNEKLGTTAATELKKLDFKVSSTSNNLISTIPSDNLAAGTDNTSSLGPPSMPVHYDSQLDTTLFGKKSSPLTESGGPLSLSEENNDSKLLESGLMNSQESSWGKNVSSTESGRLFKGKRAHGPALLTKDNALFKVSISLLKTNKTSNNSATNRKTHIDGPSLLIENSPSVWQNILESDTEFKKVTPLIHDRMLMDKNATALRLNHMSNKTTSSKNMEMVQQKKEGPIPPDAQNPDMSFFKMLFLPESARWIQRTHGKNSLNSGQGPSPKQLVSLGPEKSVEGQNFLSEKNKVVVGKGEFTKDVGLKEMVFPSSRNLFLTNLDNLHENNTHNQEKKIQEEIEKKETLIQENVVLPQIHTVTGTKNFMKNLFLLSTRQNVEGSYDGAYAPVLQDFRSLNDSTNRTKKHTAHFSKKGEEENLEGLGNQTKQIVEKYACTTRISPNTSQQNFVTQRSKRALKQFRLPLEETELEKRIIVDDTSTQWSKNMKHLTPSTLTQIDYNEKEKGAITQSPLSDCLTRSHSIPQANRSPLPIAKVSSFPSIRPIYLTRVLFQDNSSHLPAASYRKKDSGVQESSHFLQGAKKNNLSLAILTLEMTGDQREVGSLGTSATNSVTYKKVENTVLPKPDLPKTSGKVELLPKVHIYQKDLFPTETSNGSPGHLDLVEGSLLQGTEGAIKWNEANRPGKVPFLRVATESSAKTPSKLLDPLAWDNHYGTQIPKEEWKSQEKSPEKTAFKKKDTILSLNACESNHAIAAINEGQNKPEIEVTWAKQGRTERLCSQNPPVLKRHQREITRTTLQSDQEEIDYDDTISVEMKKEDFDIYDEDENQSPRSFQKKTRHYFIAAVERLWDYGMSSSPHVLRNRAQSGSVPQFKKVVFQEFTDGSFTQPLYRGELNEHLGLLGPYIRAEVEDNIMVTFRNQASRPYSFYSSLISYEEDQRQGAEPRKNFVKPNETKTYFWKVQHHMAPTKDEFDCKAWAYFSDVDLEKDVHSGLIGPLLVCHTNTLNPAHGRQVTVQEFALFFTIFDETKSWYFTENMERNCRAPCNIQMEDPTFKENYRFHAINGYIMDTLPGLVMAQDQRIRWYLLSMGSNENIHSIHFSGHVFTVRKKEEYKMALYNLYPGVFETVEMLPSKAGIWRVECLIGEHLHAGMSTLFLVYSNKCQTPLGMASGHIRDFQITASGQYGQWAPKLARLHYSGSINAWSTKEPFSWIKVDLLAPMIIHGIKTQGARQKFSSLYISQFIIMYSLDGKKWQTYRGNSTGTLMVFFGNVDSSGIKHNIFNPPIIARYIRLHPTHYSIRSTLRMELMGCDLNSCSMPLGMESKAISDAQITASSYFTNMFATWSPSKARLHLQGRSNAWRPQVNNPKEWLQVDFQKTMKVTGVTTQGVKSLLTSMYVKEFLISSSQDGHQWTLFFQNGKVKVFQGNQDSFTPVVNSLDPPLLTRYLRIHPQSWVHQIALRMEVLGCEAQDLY", "assay": "ELISA; FVIII (6.6 nM in PBS) coated; Bo2C11 serially diluted 1:3 from 60 nM; detected by anti-human IgG", "conditions": "both partners purified"}
{"binder": "B1", "values": [{"measurement": "EC50", "result": 2.66, "unit": "nM"}]}
